Test results from PMC7117682, “A homogeneous SIRPα-CD47 cell-based, ligand-binding assay: Utility for small molecule drug development in immuno-oncology” (PLoS ONE, 2020).
Blank lines part the entries; values can stand above or below the binder they belong to.

Tests used:
Conditions in all cases: one partner purified
[1] = target: T1, CD47 naturally expressed on CD47(+) Jurkat T lymphoma cells (human (endogenous in Jurkat), UniProt Q08722 19-323); test: laser scanning cytometry (LSC) on cells; competition on live CD47(+) Jurkat cells, 384-well, homogeneous: a fixed concentration of SIRPα-biotin (20 nM) co-incubated with a titration of the competitor or inhibitor, neutravidin-Alexa488
T1 construct: CD47, human, endogenous on the surface of Jurkat T lymphoma cells; also called cell-expressed CD47; native, cell surface expressed CD47; source: endogenous, on Jurkat cells (live or fixed in 4% paraformaldehyde)
T1 sequence (Q08722 19-323): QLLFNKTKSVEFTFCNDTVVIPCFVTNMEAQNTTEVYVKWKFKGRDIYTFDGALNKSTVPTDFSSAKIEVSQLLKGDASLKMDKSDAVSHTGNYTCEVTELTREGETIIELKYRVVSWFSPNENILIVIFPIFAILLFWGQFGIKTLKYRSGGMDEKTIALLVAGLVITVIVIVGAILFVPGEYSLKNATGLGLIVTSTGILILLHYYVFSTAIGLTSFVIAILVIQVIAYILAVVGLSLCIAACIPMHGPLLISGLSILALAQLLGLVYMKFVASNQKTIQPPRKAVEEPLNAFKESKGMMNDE

[2] = target: T1, CD47 naturally expressed on CD47(+) …; test: laser scanning cytometry (LSC) on cells; titration of SIRPα-biotin on Jurkat cells fixed in 4% paraformaldehyde (30 min on ice), homogeneous, neutravidin-Alexa488; with or without 1% DMSO
[3] = target: T1, CD47 naturally expressed on CD47(+) …; test: laser scanning cytometry (LSC) on cells; titration of SIRPα-biotin on live DRAQ5-labelled Jurkat cells, 384-well, homogeneous (no wash), HEPES buffer (10 mM HEPES pH 7.5, 0.15 M NaCl), room temperature, neutravidin-Alexa488 0.5 μg/mL; SIRPα presented as a multimer on tetrameric neutravidin (avidity)

IC50 [1]: 7500 nM
B1: SIRPα variant 1, non-biotin conjugated (cold) (domain or fragment, human, UniProt P78324 31-148, looked up)
chain: EEELQVIQPDKSVLVAAGETATLRCTATSLIPVGPIQWFRGAGPGRELIYNQKEGHFPRVTTVSDLTKRNNMDFSIRIGNITPADAGTYYCVKFRKGSPDDVEFKSGAGTELSVRAKP
notes: SIRPα allelic variant 1, human; non-biotin conjugated analog of the biotin-conjugated d1 construct; also called cold SIRPαV1; non-biotin conjugated SIRPαV1; source: produced as described in [33]

EC50 [2]: 1.3 nM
EC50 [3]: 4.6 nM
B2: SIRPα-Avi-biotin (soluble, biotin-conjugated SIRPα d1 construct; allelic variant not stated for the experiment) (domain or fragment)
chain: EELQVIQPDKSVLVAAGETATLRCTATSLIPVGPIQWFRGAGPGRELIYNQKEGHFPRVTTVSDLTKRNNMDFSIRIGNITPADAGTYYCVKFRKGSPDDVEFKSG
modifications: biotin (biotin-conjugated, SIRPα-Avi-biotin)
